Residue numbers refer to the chain shown, from its start.
T1: Human CD98, endogenous on HCC38, Molt-4 and Jurkat human cancer cells (human)
T1 chain: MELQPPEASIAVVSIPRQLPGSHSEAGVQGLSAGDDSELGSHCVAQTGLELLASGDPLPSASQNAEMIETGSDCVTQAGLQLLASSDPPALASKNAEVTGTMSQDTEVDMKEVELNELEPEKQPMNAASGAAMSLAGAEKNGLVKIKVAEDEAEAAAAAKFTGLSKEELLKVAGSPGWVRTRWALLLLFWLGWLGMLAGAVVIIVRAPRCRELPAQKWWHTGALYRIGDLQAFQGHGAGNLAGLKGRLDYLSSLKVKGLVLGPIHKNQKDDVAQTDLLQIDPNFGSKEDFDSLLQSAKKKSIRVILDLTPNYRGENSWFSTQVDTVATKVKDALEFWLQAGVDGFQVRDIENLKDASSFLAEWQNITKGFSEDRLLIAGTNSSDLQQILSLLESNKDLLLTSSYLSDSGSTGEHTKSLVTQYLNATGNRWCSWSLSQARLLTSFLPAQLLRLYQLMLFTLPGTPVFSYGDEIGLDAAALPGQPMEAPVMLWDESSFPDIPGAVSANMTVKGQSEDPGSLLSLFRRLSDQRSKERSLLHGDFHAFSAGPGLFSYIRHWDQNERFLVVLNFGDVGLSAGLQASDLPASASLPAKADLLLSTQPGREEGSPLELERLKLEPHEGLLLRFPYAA

T2: human CD98, endogenously expressed on Molt-4 human acute lymphoblastic leukemia cells (human)
T2 chain: T1 chain

B1: Ab2-CZ (Ab2 conjugated to Bcl-xL inhibitor synthon CZ) (antibody, V domains shown)
VH: EVKLVESGGGLVQPGGSLRLSCATSGFNFTDYYMSWVRQPPGKALEWLGFIRNKANGYTTEYSASVKGRFTISRDDSQSILYLQMNTLRAEDSATYYCARASYGNSEGWFAYWGQGTLVTVSA
VL: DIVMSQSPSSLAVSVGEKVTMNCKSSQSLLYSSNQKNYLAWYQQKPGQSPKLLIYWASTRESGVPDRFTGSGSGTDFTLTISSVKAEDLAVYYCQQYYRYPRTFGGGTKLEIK
B2: Ab14-CZ (Ab14 conjugated to Bcl-xL inhibitor synthon CZ) (antibody, V domains shown)
VH: EVKLQQSGDELVRPGASVKISCKASGYTFTSYSMHWVKERPGQGLEWIGAIFPIIGTTEYNQKFKGKATLTADKSSNTANMELSRLTSEDSAVYYCARVYLSYFDYWGQGVMVTVSS
VL: DIQMTQSPSFLSASVGDRVTINCKASQNINKYLDWYQRKHGEAPKLLIYNTNNLQTGIPSRFSGSGSGTDYTLTISSLQPEDVATYFCLQHSSRYTFGAGTKLELK
B3: Ab9-CZ (Ab9 conjugated to Bcl-xL inhibitor synthon CZ) (antibody, V domains shown)
VH: QVQLKESGPGLVQPSQTLSLTCAVSGFSLSNYGVIWVRQPPGKGLEWMAVIWTNGNTNYNSTLKSRLSISRDTSKSQVYLKMNSLQTEDTATYYCARHYYDGTYYYGYFDYWGQGVMVTVSS
VL: DIVMTQTPSSQAVSAGEKVTMSCKSSQSLLYTENKKNYLAWYQQKPGQSPKLLIYWASTRESGVPDRFMGSGSGTDFTLTISSVQAEDLAVYYCQQYYYFPYMFGAGTKLELK
B4: Ab13-CZ (Ab13 conjugated to Bcl-xL inhibitor synthon CZ) (antibody, V domains shown)
VH: B3 VH with A23T, N31S, A49G, V50I, T53A, T62A, Y104H
VL: B3 VL with I2T, T32S, N37K, M69I, Y99N, M103T
B5: Ab10-CZ (Ab10 conjugated to Bcl-xL inhibitor synthon CZ) (antibody, V domains shown)
VH: EVQLVESGGGLVQPGRSLKLSCAASGFTFSDYAMAWVRQAPKKSLEWVATIIYDGRGTYCRDSVKGRFTISRDNAKSTLYLQMDSLRSEDTATYYCARQGDGTYHYWGYFDYWGQGVMVTVSS
VL: DIVMTQSPSSLAVSAGETVTINCKSSQSLLSSGNQKNYLAWYQQKPGQSPKLLIYWASTRQSGVPDRFIGSGSGTDFTLTISSVQAEDLAIYYCQQYYDTPYTFGAGTKVDLK
B6: Ab12-CZ (Ab12 conjugated to Bcl-xL inhibitor synthon CZ) (antibody, V domains shown)
VH: B5 VH with S44G, T50S, C60Y, H105Y, Y109S
VL: B5 VL with Y93H, V110L, D111E
B7: Ab11-CZ (Ab11 conjugated to Bcl-xL inhibitor synthon CZ) (antibody, V domains shown)
VH: B5 VH with S44G, T50G, C60Y, H105Y
VL: B5 VL with K24R, V110L, D111E
B8: Ab15-CZ (Ab15 conjugated to Bcl-xL inhibitor synthon CZ) (antibody, V domains shown)
VH: B5 VH with A33T, S44G, C60Y, G100S, H105Y
VL: B5 VL with S31F, S82R, T100S, V110L, D111E
B9: Ab3-CZ (Ab3 conjugated to Bcl-xL inhibitor synthon CZ) (antibody, V domains shown)
VH: EVKLVESGGGLVQPGNSLRLSCATSGFTFIDYYMSWVRQSPGKALEWLGFIRNKANGYTTEYSASVKGRFTISRDNSQSILYLQMDTLRAEDSATYYCTRDRPAWFVYWGQGTLVTVSA
VL: DIVMSQSPSSLAVSVGEKVTMSCKSSQSLLYSSNQKNYLAWYQQKPGQSPKLLIYWASTRESGVPDRFTGSGSGTDFTLTFSSVRAEDLAVYYCQQYYSYPYTFGGGTKLEIK
B10: CD98 (CL-huAb110)-ZZ (antibody, human IgG1, kappa, L234A L235A, V domains shown)
VH: EVQLVQSGAEVKKPGASVKVSCKASGFTFSDYTMAWVRQAPGQGLEWVATIIYDARGTYYRDAVKGRFTITRDNSTSTLYLELSSLRSEDTAVYYCARQSDDTYYYWGYFDYWGQGTMVTVSS
VL: DIVMTQTPLSLPVTPGEPASINCKSSQSLLFSGNQKNYLAWYLQKPGQSPQLLIYWASTRQSGVPDRFSGSGSGTDFTLKISRVEAEDVGIYYCQQYYSSPYTFGQGTKLEIKR
modifications: synthon ZZ on reduced cysteine (see heavy chain); Bcl-xL inhibitor synthon ZZ on cysteines freed by TCEP reduction (Method G); DAR 1.0 by MS for the whole ADC
B11: CD98 (CL-huAb102)-SR (antibody, human IgG1, kappa, L234A L235A, V domains shown)
VH: EVQLVESGGGLVQPGGSLRLSCATSGFTFIDYYMSWVRQAPGKGLEWLGFIRNKANRYTTEYSASVKGRFTISRDNSKSILYLQMNSLKTEDTAVYYCTRDRPAWFVYWGQGTLVTVSS
VL: B10 VL with N22S, F31Y, G33S, Q61E, I91V, S100Y, Q106G, L110V
modifications: synthon SR on reduced cysteine (see heavy chain); Bcl-xL inhibitor synthon SR on cysteines freed by TCEP reduction (Method A); DAR 2.1 by MS for the whole ADC
B12: CD98 (CL-huAb110)-SR (antibody, human IgG1, kappa, L234A L235A, V domains shown)
VH: B10 VH
VL: B10 VL
modifications: synthon SR on reduced cysteine (see heavy chain); Bcl-xL inhibitor synthon SR on cysteines freed by TCEP reduction (Method A); DAR printed as '.0.7' by MS for the whole ADC
B13: CD98 (CL-huAb110)-XW (antibody, human IgG1, kappa, L234A L235A, V domains shown)
VH: B10 VH
VL: B10 VL
modifications: synthon XW on reduced cysteine (see heavy chain); Bcl-xL inhibitor synthon XW on cysteines freed by TCEP reduction (Method G); DAR 3.2 by MS for the whole ADC
B14: CD98 (CL-huAb104)-YG (antibody, human IgG1, kappa, L234A L235A, V domains shown)
VH: B11 VH with N56Y, R57G
VL: B10 VL with N22S, F31Y, G33S, Q61E, I91V, S100Y, Q106G, L110V
modifications: synthon YG on reduced cysteine (see heavy chain); Bcl-xL inhibitor synthon YG on cysteines freed by TCEP reduction (Method E); DAR 1.3 by MS for the whole ADC
B15: CD98 (CL-huAb102)-SE (antibody, human IgG1, kappa, L234A L235A, V domains shown)
VH: B11 VH
VL: B10 VL with N22S, F31Y, G33S, Q61E, I91V, S100Y, Q106G, L110V
modifications: synthon SE on reduced cysteine (see heavy chain); Bcl-xL inhibitor synthon SE on cysteines freed by TCEP reduction (Method A); DAR 2.2 by MS for the whole ADC
B16: CD98 (CL-huAb104)-SE (antibody, human IgG1, kappa, L234A L235A, V domains shown)
VH: B11 VH with N56Y, R57G
VL: B10 VL with N22S, F31Y, G33S, Q61E, I91V, S100Y, Q106G, L110V
modifications: synthon SE on reduced cysteine (see heavy chain); Bcl-xL inhibitor synthon SE on cysteines freed by TCEP reduction (Method A); DAR 2.4 by MS for the whole ADC
B17: CD98 (CL-huAb104)-SR (antibody, human IgG1, kappa, L234A L235A, V domains shown)
VH: B11 VH with N56Y, R57G
VL: B10 VL with N22S, F31Y, G33S, Q61E, I91V, S100Y, Q106G, L110V
modifications: synthon SR on reduced cysteine (see heavy chain); Bcl-xL inhibitor synthon SR on cysteines freed by TCEP reduction (Method A); DAR 2.2 by MS for the whole ADC
B18: CD98 (CL-huAb102)-YG (antibody, human IgG1, kappa, L234A L235A, V domains shown)
VH: B11 VH
VL: B10 VL with N22S, F31Y, G33S, Q61E, I91V, S100Y, Q106G, L110V
modifications: synthon YG on reduced cysteine (see heavy chain); Bcl-xL inhibitor synthon YG on cysteines freed by TCEP reduction (Method E); DAR 1.1 by MS for the whole ADC
B19: CD98 (CL-huAb104)-XW (antibody, human IgG1, kappa, L234A L235A, V domains shown)
VH: B11 VH with N56Y, R57G
VL: B10 VL with N22S, F31Y, G33S, Q61E, I91V, S100Y, Q106G, L110V
modifications: synthon XW on reduced cysteine (see heavy chain); Bcl-xL inhibitor synthon XW on cysteines freed by TCEP reduction (Method G); DAR 3.1 by MS for the whole ADC
B20: CD98 (CL-huAb108)-XW (antibody, human IgG1, kappa, L234A L235A, V domains shown)
VH: B10 VH with D54S, A55G
VL: B10 VL with S99D, S100V
modifications: synthon XW on reduced cysteine (see heavy chain); Bcl-xL inhibitor synthon XW on cysteines freed by TCEP reduction (Method G); DAR 3.5 by MS for the whole ADC
B21: CD98 (CL-huAb110)-SE (antibody, human IgG1, kappa, L234A L235A, V domains shown)
VH: B10 VH
VL: B10 VL
modifications: synthon SE on reduced cysteine (see heavy chain); Bcl-xL inhibitor synthon SE on cysteines freed by TCEP reduction (Method A); DAR 1.9 by MS for the whole ADC
B22: CD98 (CL-huAb102)-XW (antibody, human IgG1, kappa, L234A L235A, V domains shown)
VH: B11 VH
VL: B10 VL with N22S, F31Y, G33S, Q61E, I91V, S100Y, Q106G, L110V
modifications: synthon XW on reduced cysteine (see heavy chain); Bcl-xL inhibitor synthon XW on cysteines freed by TCEP reduction (Method G); DAR 2.8 by MS for the whole ADC

Target: T1, Human CD98, endogenous on HCC38, Molt-4 …
Test: cell-based or functional assay

Binder | ADC potency, IC50 (nM), HCC38 growth inhibition [nM] | ADC potency, IC50 (nM), Jurkat growth inhibition [nM] | ADC potency, IC50 (nM), Molt-4 growth inhibition [nM]
B1 | 0.791 | 0.065 | 0.05
B2 | 0.798 | 0.063 | 0.025
B3 | 1.09 | 0.092 | 0.03
B4 | 0.787 | 0.149 | 0.38
B5 | 1.16 | 0.148 | 0.047
B6 | 0.685 | 0.094 | 0.087
B7 | 1.14 | 0.311 | 0.279
B8 | 1.06 | 0.076 | 0.071
B9 | 0.561 | 0.071 | 0.031

Target: T2, human CD98, endogenously expressed on …
Test: cell-based or functional assay

Binder | % Cell Viability at 50 nM (Molt-4) [%] | Molt4 IC50 (nM), 50% inhibition of cell proliferation, 72 h, ATPlite [nM]
B10 | 4.3 | 0.252
B11 | 12.7 | 0.03
B12 | 11 | 0.332
B13 | 19.6 | 0.308
B14 | 25.3 | 2.67
B15 | 19.7 | 0.107
B16 | 17.1 | 0.149
B17 | 2.7 | 0.045
B18 | 31.9 | 1.21
B19 | 31.1 | 0.102
B20 | 20.9 | 0.281
B21 | 5.7 | 0.502
B22 | 32 | 0.074

Reference: patent US20200121803A1 (published 2020)
